In the Immune Epitope Database (IEDB) one finds IC50 and Kd data, which are given here for twelve sequences.

Assay [1] deals with HLA-A*02:01. As to the kind of experiment: IEDB peptide-MHC binding, cellular MHC/competitive/fluorescence; ≥ and ≤ were set here for values at or beyond the usual limits of such assays. The note with it: source organism: Homo sapiens.
A further assay has as its target HLA-A*24:02. Nature of the assay: IEDB peptide-MHC binding, purified MHC/competitive/radioactivity; ≥ and ≤ were set here for values at or beyond the usual limits of such assays. The note with it: source organism: Homo sapiens.
In the next assay the target is HLA-C*04:01. As to the kind of experiment: IEDB peptide-MHC binding, purified MHC/direct/fluorescence; filed as Kd, often an IC50 or EC50 that approximates it; ≥ and ≤ were set here for values at or beyond the usual limits of such assays. As to conditions: source organism: Canis lupus familiaris.
The next assay deals with HLA-C*07:02. The assay is described as above. The note with it: source organism: Canis lupus familiaris.
Assay [2] has as its target HLA-A*01:01. The description is as above.
Assay [3] concerns the target HLA-A*02:01. The assay is described as above. As to conditions: source organism: Influenza A virus (A/Wisconsin/4755/1994(H1N1)).
The next assay concerns the target HLA-A*03:01. Described as above.
The target in the next assay is HLA-A*11:01. Described as above.
Assay [4] deals with HLA-A*26:01. The description is as above. As to conditions: source organism: Influenza A virus(A/swine/Shandong/fNY/2003(H9N2)).
Assay [5] concerns the target HLA-A*31:01. The description is as above.
Another assay deals with HLA-A*69:01. Described as above.
In a further assay the target is HLA-B*07:02. The assay is described as above.
In another assay the target is HLA-B*15:01. Described as above.
Assay [6] deals with HLA-B*15:09. Described as above. As to conditions: source organism: Influenza A virus(A/swine/Shandong/fNY/2003(H9N2)).
The next assay has as its target HLA-B*18:01. The assay is described as above.
The target of another assay is HLA-B*27:05. Described as above.
For a further assay, the target named is HLA-B*38:01. The assay is described as above. As to conditions: source organism: Influenza A virus(A/swine/Shandong/fNY/2003(H9N2)).
Assay [7] concerns the target HLA-B*39:01. Described as above.
The target in the next assay is HLA-B*40:01. Described as above.
In another assay the target is HLA-B*46:01. The description is as above.
In a further assay the target is HLA-B*48:01. The description is as above.
A further assay deals with HLA-B*51:01. The description is as above.
In assay [8] the target is HLA-B*57:01. The assay is described as above.
A further assay concerns the target HLA-B*58:01. Described as above.
For a further assay, the target named is HLA-B*08:01. As to the kind of experiment: IEDB peptide-MHC binding, purified MHC/competitive/fluorescence; filed as Kd, often an IC50 or EC50 that approximates it; ≥ and ≤ were set here for values at or beyond the usual limits of such assays.
For assay [9], the target named is HLA-B*15:17. The description is as above.
The target of assay [10] is HLA-A*01:01. Nature of the assay: IEDB peptide-MHC binding, purified MHC/competitive/radioactivity; ≥ and ≤ were set here for values at or beyond the usual limits of such assays.
In assay [11] the target is HLA-A*02:01. The assay is described as above. The note with it: source organism: Homo sapiens.
For a further assay, the target named is HLA-A*23:01. Nature of the assay: IEDB peptide-MHC binding, purified MHC/direct/fluorescence; filed as Kd, often an IC50 or EC50 that approximates it; ≥ and ≤ were set here for values at or beyond the usual limits of such assays. The note with it: source organism: Marburg virus - Musoke, Kenya, 1980.
Another assay addresses HLA-A*24:03. The description is as above. The note with it: source organism: Marburg virus - Musoke, Kenya, 1980.
Another assay addresses HLA-B*08:02. The description is as above. The note with it: source organism: Ravn virus - Ravn, Kenya, 1987.
In the next assay the target is HLA-C*08:02. The assay is described as above. As to conditions: source organism: Orthomarburgvirus marburgense.
The target of another assay is HLA-A*02:06. Nature of the assay: IEDB peptide-MHC binding, purified MHC/competitive/fluorescence; filed as Kd, often an IC50 or EC50 that approximates it; ≥ and ≤ were set here for values at or beyond the usual limits of such assays. As to conditions: source organism: Orthomarburgvirus marburgense.
The target of assay [12] is HLA-A*26:01. The assay is described as above. As to conditions: source organism: Orthomarburgvirus marburgense.
For a further assay, the target named is HLA-A*26:02. The description is as above. The note with it: source organism: Orthomarburgvirus marburgense.
The next assay deals with HLA-A*68:02. The description is as above. As to conditions: source organism: Orthomarburgvirus marburgense.
The target in assay [13] is HLA-B*15:09. The assay is described as above.
For assay [14], the target named is HLA-B*39:01. The assay is described as above. As to conditions: source organism: Orthomarburgvirus marburgense.
Assay [15] deals with HLA-B*57:01. The description is as above. The note with it: source organism: Orthomarburgvirus marburgense.
The target of assay [16] is HLA-B*15:17. As to the kind of experiment: IEDB peptide-MHC binding, purified MHC/direct/fluorescence; filed as Kd, often an IC50 or EC50 that approximates it; ≥ and ≤ were set here for values at or beyond the usual limits of such assays. As to conditions: source organism: Vibrio cholerae.
The target of the next assay is HLA-A*30:01. Nature of the assay: IEDB peptide-MHC binding, purified MHC/competitive/fluorescence; filed as Kd, often an IC50 or EC50 that approximates it; ≥ and ≤ were set here for values at or beyond the usual limits of such assays. The note with it: source organism: Vibrio cholerae O1 biovar El Tor str. N16961.
In assay [17] the target is HLA-A*31:01. The assay is described as above. The note with it: source organism: Vibrio cholerae O1 biovar El Tor str. N16961.
Setting [18] is: source organism: Influenza A virus (A/Wisconsin/4755/1994(H1N1)).
The mark [19] stands for this setting: source organism: Influenza A virus H3N2.
The mark [20] stands for this setting: source organism: Marburg virus - Musoke, Kenya, 1980.
[21] abbreviates: source organism: Orthomarburgvirus marburgense.
Where [22] appears, read: source organism: Vibrio cholerae.
The mark [23] stands for this setting: source organism: Vibrio cholerae V52.
The mark [24] stands for this setting: source organism: Vibrio cholerae O1 biovar El Tor str. N16961.

pIC50, pKd: −log10 of the molar value.

For ALLDKLYAL, the pIC50 (as a rule, the negative decadic logarithm of the IC50, by convention in mol/L) in the assay with HLA-A*02:01 [1] was 5.93.
Take FYDPMFKYHL: in the assay with HLA-A*24:02, the pIC50 was 6.82.
As for HYNAFHWAI, the pKd (commonly the negative decadic logarithm of the Kd, by convention in mol/L) is at most 4.70 in the assay with HLA-C*04:01 and 7.33 in the assay with HLA-C*07:02.
For the sequence IFSKASEYL, the pIC50 with HLA-A*24:02 was 6.28.
Take ITKEKKEEL: the negative logarithm of the Kd (pKd) with HLA-A*01:01 [2] (setting [18]), with HLA-A*02:01 [3], with HLA-A*03:01 (setting [18]), with HLA-A*11:01 (setting [18]), in the assay with HLA-A*26:01 [4] and with HLA-A*31:01 [5] (setting [18]) was at most 4.70 in each case. For the same sequence, the pKd in the assay with HLA-A*69:01 (setting [18]), with HLA-B*07:02 (setting [18]), with HLA-B*15:01 (setting [18]), with HLA-B*15:09 [6], in the assay with HLA-B*18:01 (setting [18]) and with HLA-B*27:05 (setting [18]) was at most 4.70 each time. The pKd with HLA-B*38:01, with HLA-B*39:01 [7] (source organism: Influenza A virus(A/swine/Shandong/fNY/2003(H9N2))), with HLA-B*40:01 (setting [18]), with HLA-B*46:01 (setting [18]), with HLA-B*48:01 (setting [18]) and in the assay with HLA-B*51:01 (setting [18]) was at most 4.70 each time. The negative-log Kd (pKd) is at most 4.70 in the assay with HLA-B*57:01 [8] (setting [18]), at most 4.70 with HLA-B*58:01 (setting [18]), 5.32 with HLA-B*08:01 (setting [19]) and at most 4.70 with HLA-B*15:17 [9] (setting [19]).
On to KSAIVTLTY, for which the pIC50 with HLA-A*01:01 [10] (source organism: Human papillomavirus 16) is 7.96.
For LLAVGATKV, in the assay with HLA-A*02:01 [11], the pIC50 is 6.48.
LLDRFLATV: the pIC50 in the assay with HLA-A*02:01 [1] is 6.25.
Regarding RLDCWRGGQV, the pIC50 with HLA-A*02:01 [11] was 6.60.
YGDDVIFSY: the negative logarithm of the IC50 (pIC50) in the assay with HLA-A*01:01 [10] (source organism: Rhinovirus A) is 6.70.
With YLAPSYRNF, the pKd is at most 4.70 with HLA-A*01:01 [2] (setting [20]); at most 4.70 with HLA-A*11:01 (setting [20]); 7.64 with HLA-A*23:01; 7.78 with HLA-A*24:03; at most 4.70 in the assay with HLA-A*31:01 [5] (setting [20]); at most 4.70 with HLA-A*69:01 (setting [20]). The pKd with HLA-B*07:02 (setting [20]) was at most 4.70; in the assay with HLA-B*08:02, at most 4.70; with HLA-B*18:01 (setting [20]) it was at most 4.70; with HLA-B*58:01 (source organism: Ravn virus - Ravn, Kenya, 1987), 6.37; in the assay with HLA-C*08:02, at most 4.70; in the assay with HLA-A*02:06 it was at most 4.70. Further, the pKd with HLA-A*26:01 [12] was 5.29; in the assay with HLA-A*26:02, 8.38; with HLA-A*68:02 it was 5.49; with HLA-B*15:09 [13] (setting [21]), at most 4.70; with HLA-B*15:17 [9] (setting [21]), 5.40; in the assay with HLA-B*39:01 [14], at most 4.70. The negative logarithm of the Kd (pKd) with HLA-B*57:01 [15] was at most 4.70.
Regarding YLKKGRLSL, the negative-log Kd (pKd) with HLA-A*01:01 [2] (setting [22]) is at most 4.70; in the assay with HLA-A*03:01 (setting [22]) it was at most 4.70; in the assay with HLA-A*11:01 (setting [22]) it was at most 4.70; with HLA-A*69:01 (setting [22]), at most 4.70; with HLA-B*07:02 (setting [22]), 6.91; with HLA-B*15:01 (setting [23]), 7.28. Also, the pKd with HLA-B*15:17 [16] is at most 4.70; in the assay with HLA-B*18:01 (setting [22]), at most 4.70; in the assay with HLA-B*27:05 (setting [22]) it was at most 4.70; in the assay with HLA-B*39:01 [7] (setting [23]), at most 4.70; with HLA-B*40:01 (setting [22]), at most 4.70; with HLA-B*46:01 (setting [22]), 5.30. Further, the pKd with HLA-B*48:01 (setting [22]) was at most 4.70; with HLA-B*51:01 (setting [22]), at most 4.70; in the assay with HLA-B*57:01 [8] (setting [22]), at most 4.70; with HLA-B*58:01 (setting [22]) it was at most 4.70; with HLA-A*30:01, 5.83; with HLA-A*31:01 [17] it was at most 4.70. For the same sequence, the figures for the pKd in the assay with HLA-B*08:01 (setting [24]) and with HLA-B*15:09 [13] (setting [24]) were 7.27 and at most 4.70, respectively.
